Results reported in publication PMC3098719 (Molecular cell, 2008).

Columns and labels:
[1] = target: T1, Kae1 (residues 1-328 of Methanococcus jannaschii MJ1130), untagged (Methanococcus jannaschii, UniProt Q58530 1-328); assay: pull-down
T1 sequence (looked up): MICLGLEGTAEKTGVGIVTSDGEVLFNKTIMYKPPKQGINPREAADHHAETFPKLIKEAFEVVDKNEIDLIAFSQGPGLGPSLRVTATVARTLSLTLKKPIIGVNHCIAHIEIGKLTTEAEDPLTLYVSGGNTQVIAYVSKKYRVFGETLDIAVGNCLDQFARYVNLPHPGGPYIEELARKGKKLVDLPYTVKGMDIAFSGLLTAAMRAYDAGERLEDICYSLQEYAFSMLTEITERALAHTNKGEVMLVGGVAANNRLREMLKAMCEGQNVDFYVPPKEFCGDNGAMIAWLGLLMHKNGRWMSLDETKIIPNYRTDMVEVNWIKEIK

[2] = target: T2, GST-Kae1 E233R (M. jannaschii) (Methanococcus jannaschii, UniProt Q58530 1-328, E233R); assay: pull-down
T2 sequence (looked up): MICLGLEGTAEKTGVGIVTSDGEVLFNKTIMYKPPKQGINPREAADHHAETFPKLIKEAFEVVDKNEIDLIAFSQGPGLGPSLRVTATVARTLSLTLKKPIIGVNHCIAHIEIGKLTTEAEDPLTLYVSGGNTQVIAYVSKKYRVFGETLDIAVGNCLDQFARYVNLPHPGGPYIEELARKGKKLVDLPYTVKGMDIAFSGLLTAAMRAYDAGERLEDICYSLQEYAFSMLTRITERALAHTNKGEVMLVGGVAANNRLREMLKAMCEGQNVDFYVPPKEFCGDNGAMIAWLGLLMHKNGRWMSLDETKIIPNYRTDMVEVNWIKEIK

[3] = target: T3, GST-Kae1 (residues 1-328 of Methanococcus jannaschii MJ1130) (Methanococcus jannaschii, UniProt Q58530 1-328); assay: pull-down
T3 sequence (looked up): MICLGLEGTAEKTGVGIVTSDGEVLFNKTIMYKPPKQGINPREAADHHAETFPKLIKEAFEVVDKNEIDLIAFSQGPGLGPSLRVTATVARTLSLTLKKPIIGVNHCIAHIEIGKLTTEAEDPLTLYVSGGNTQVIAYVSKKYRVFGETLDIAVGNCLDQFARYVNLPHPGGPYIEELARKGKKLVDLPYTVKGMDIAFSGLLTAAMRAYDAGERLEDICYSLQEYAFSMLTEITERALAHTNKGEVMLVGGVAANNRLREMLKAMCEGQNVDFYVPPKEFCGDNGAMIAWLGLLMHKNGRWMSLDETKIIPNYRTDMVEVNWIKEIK

[4] = target: T4, GST-Kae1 E236K (M. jannaschii) (Methanococcus jannaschii, UniProt Q58530 1-328, E236K); assay: pull-down
T4 sequence (looked up): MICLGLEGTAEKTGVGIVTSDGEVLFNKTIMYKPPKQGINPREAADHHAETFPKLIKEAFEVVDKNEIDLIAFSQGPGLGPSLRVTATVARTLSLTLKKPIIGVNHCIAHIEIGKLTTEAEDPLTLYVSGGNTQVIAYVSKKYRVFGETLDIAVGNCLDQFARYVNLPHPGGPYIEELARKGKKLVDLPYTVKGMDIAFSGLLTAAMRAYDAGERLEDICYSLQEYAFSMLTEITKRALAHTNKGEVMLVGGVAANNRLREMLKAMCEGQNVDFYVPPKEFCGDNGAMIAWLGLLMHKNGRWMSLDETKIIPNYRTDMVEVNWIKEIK

[5] = target: the molecule itself; assay: SEC
[6] = target: T5, Bud32 K365E (M. jannaschii) (Methanococcus jannaschii, UniProt Q58530 328-535, K365E); assay: pull-down
T5 sequence (looked up): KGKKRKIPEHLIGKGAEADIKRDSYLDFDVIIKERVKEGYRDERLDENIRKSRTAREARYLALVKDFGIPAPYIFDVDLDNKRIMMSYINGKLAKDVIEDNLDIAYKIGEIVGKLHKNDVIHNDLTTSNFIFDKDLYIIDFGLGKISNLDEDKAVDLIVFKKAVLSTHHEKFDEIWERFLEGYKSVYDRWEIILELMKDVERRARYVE

[7] = target: T6, Bud32 V486Y (M. jannaschii) (Methanococcus jannaschii, UniProt Q58530 328-535, V486Y); assay: pull-down
T6 sequence (looked up): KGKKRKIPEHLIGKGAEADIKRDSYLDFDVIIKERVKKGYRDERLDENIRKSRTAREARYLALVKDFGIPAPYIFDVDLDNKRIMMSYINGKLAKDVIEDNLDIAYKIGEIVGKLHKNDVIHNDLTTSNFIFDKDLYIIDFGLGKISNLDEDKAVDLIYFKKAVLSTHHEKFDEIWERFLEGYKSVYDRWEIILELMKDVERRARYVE

[8] = target: T7, Bud32 R380E (M. jannaschii) (Methanococcus jannaschii, UniProt Q58530 328-535, R380E); assay: pull-down
T7 sequence (looked up): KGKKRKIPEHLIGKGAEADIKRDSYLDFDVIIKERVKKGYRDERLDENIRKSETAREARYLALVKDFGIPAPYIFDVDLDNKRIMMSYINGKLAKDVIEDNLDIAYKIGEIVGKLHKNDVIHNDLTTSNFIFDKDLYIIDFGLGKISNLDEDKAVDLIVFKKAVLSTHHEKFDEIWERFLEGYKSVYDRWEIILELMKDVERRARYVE

[9] = target: T8, Bud32 K489E (M. jannaschii) (Methanococcus jannaschii, UniProt Q58530 328-535, K489E); assay: pull-down
T8 sequence (looked up): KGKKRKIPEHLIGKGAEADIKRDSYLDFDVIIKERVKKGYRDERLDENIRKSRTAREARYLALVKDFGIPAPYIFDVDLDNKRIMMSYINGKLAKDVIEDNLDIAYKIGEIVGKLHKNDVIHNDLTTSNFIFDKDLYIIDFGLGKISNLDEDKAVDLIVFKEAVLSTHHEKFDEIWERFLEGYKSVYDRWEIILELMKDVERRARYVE

[10] = target: MJ1130 (Kae1-Bud32 fusion of Methanococcus jannaschii) as used for the complex with Cgi121 (Methanococcus jannaschii) (UniProt Q58530); assay: crystal structure
[11] = target: T9, Bud32 (residues 328-535 of Methanococcus jannaschii MJ1130), untagged (Methanococcus jannaschii, UniProt Q58530 328-535); assay: pull-down
T9 sequence (looked up): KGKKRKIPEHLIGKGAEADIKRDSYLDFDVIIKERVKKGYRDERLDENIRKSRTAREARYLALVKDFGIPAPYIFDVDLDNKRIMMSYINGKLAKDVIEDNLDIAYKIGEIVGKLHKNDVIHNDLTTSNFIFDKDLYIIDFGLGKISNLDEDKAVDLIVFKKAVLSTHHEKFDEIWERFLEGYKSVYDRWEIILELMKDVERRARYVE

B1: GST-Pcc1 (Pyrococcus furiosus PF2011) (natural protein, UniProt Q8TZI1 1-82, looked up)
chain: MKAKRVQAKIEIEFPSEDVAKVVYEAVLYEHLSVPYRRSEIDFKLEGKKIILDIKATDSSALRGTVNSYLRWIKAAIDVIEV
binding result [1]: binds

B2: Pcc1 (Pyrococcus furiosus PF2011), untagged (natural protein, UniProt Q8TZI1 1-82, looked up)
chain: MKAKRVQAKIEIEFPSEDVAKVVYEAVLYEHLSVPYRRSEIDFKLEGKKIILDIKATDSSALRGTVNSYLRWIKAAIDVIEV
binding result [2]: binds | binding result [3]: binds | binding result [4]: binds

B3: Pcc1 A75Y/V79R (P. furiosus) (natural protein, Pyrococcus furiosus, UniProt Q8TZI1 1-82, looked up)
chain: MKAKRVQAKIEIEFPSEDVAKVVYEAVLYEHLSVPYRRSEIDFKLEGKKIILDIKATDSSALRGTVNSYLRWIKYAIDRIEV
stoichiometry N [5]: 2

B4: Pcc1 V79R (P. furiosus) (natural protein, Pyrococcus furiosus, UniProt Q8TZI1 1-82, looked up)
chain: MKAKRVQAKIEIEFPSEDVAKVVYEAVLYEHLSVPYRRSEIDFKLEGKKIILDIKATDSSALRGTVNSYLRWIKAAIDRIEV
stoichiometry N [5]: 2

B5: Pcc1 A75Y (P. furiosus) (natural protein, Pyrococcus furiosus, UniProt Q8TZI1 1-82, looked up)
chain: MKAKRVQAKIEIEFPSEDVAKVVYEAVLYEHLSVPYRRSEIDFKLEGKKIILDIKATDSSALRGTVNSYLRWIKYAIDVIEV
stoichiometry N [5]: 2

B6: Pcc1 E30R (P. furiosus) (natural protein, Pyrococcus furiosus, UniProt Q8TZI1 1-82, looked up)
chain: MKAKRVQAKIEIEFPSEDVAKVVYEAVLYRHLSVPYRRSEIDFKLEGKKIILDIKATDSSALRGTVNSYLRWIKAAIDVIEV
stoichiometry N [5]: 2

B7: GST-Cgi121 (Methanococcus jannaschii MJ0187) (natural protein, UniProt Q57646 1-145, looked up)
chain: MIIRGIRGARINNEIFNLGLKFQILNADVVATKKHVLHAINQAKTKKPIAKSFWMEILVRASGQRQIHEAIKIIGAKDGNVCLICEDEETFRKIYELIGGEIDDSVLEINEDKERLIREIFKIRGFGNVVERVLEKIALIELKKE
binding result [6]: binds | binding result [7]: binds | binding result [8]: binds | binding result [9]: binds | stoichiometry N (Cgi121 per MJ1130) [10]: 1

B8: GST-Cgi121 A138R (M. jannaschii) (natural protein, Methanococcus jannaschii, UniProt Q57646 1-145, looked up)
chain: MIIRGIRGARINNEIFNLGLKFQILNADVVATKKHVLHAINQAKTKKPIAKSFWMEILVRASGQRQIHEAIKIIGAKDGNVCLICEDEETFRKIYELIGGEIDDSVLEINEDKERLIREIFKIRGFGNVVERVLEKIRLIELKKE
binding result [11]: binds

B9: GST-Cgi121 L134E (M. jannaschii) (natural protein, Methanococcus jannaschii, UniProt Q57646 1-145, looked up)
chain: MIIRGIRGARINNEIFNLGLKFQILNADVVATKKHVLHAINQAKTKKPIAKSFWMEILVRASGQRQIHEAIKIIGAKDGNVCLICEDEETFRKIYELIGGEIDDSVLEINEDKERLIREIFKIRGFGNVVERVEEKIALIELKKE
binding result [11]: binds

B10: GST-Cgi121 L139R (M. jannaschii) (natural protein, Methanococcus jannaschii, UniProt Q57646 1-145, looked up)
chain: MIIRGIRGARINNEIFNLGLKFQILNADVVATKKHVLHAINQAKTKKPIAKSFWMEILVRASGQRQIHEAIKIIGAKDGNVCLICEDEETFRKIYELIGGEIDDSVLEINEDKERLIREIFKIRGFGNVVERVLEKIARIELKKE
binding result [11]: binds
